Data set [1] is described as follows: folding stability dG unfold from chymotrypsin proteolysis; higher = more stable. A digest of the protocol:
(§1)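 Only designs with AlphaFold2 dimer inter-PAE above 15 were retained; each was a mini-protein under 80 residues with no cysteine, in a PA-tagged cDNA display construct. After digestion with trypsin and chymotrypsin and sequencing, K50 was inferred by Bayesian fitting of counts, and unfolding free energy was derived per protease or combined against a sequence-predicted unfolded-state K50 and a shared folded-state K50.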

Data set [2] can be described thus: folding stability dG unfold from trypsin proteolysis; higher = more stable. A digest of the protocol: as §1
A short description of data set [3]: folding stability dG unfold (combined trypsin and chymotrypsin); higher = more stable. The method in brief: as §1

± gives the half width of the 95% confidence interval.

As to “SAGGSAGGSMKIPEDETYEEKLPDGRKVTYTWEPESGLLKTTTTDPNNDTPTTSTYKVPPSSLLSAGGSAGG [r6_407_JUSTAS]”, the “folding stability dG unfold” value came out at 0.49 ± 0.31 kcal/mol in data set [1], 0.0466 ± 0.2 kcal/mol in data set [2] and 0.262 ± 0.25 kcal/mol in data set [3].
Regarding “SAGGSAGGSMKIPSDYTLTPIETKDNGASTVTLEKVTYPGPSLLATFLTPPDGTVTLLEVKPVSAGGSAGGS [r20_103_JUSTAS]”, the “folding stability dG unfold” value was 1.24 ± 0.072 kcal/mol in data set [1], 0.525 ± 0.046 kcal/mol in data set [2] and 0.997 ± 0.065 kcal/mol in data set [3].
For “SAGGSAGGSMKITKSPSGYYTVTINLPNGTTVEIKVSTSDPNATDEQIIEIAKPKAEEILKKSSAGGSAGGS [r12_642_JUSTAS]”, the “folding stability dG unfold” value in data set [1] turned out to be 2.87 ± 0.12 kcal/mol; in data set [2], 1.16 ± 0.054 kcal/mol; in data set [3] it was 2.53 ± 0.14 kcal/mol.
For the sequence “SAGGSAGGSMKIYEVPPEVAENMSLEEIIESLVLPGYPAKAEAFEDEGPGYVLVDLFLPPELGSAGGSAGGS [r12_716_TrMRF]”, the figures for the “folding stability dG unfold” value in data set [1], in data set [2] and in data set [3] were 1.02 ± 0.029 kcal/mol, -0.666 ± 0.12 kcal/mol and 0.842 ± 0.13 kcal/mol, respectively.
For the sequence “SAGGSAGGSMKKIKVKIKITDKDGNKKEVEAEIFFDEETGKLYIKLPNGEVKEISLEDIEIVESAGGSAGGS [r12_256_TrROS_Hall]”, the “folding stability dG unfold” value in data set [1] is 4.01 ± 0.069 kcal/mol; in data set [2], 2.46 ± 0.08 kcal/mol; in data set [3], 3.63 ± 0.09 kcal/mol.
On to “SAGGSAGGSMKLEVEAELEVPLPNGKPKRFKVKFRVEPGESGVKVEVLEVDDPLVVEAIKKLFSAGGSAGGS [r12_743_TrMRF]”, for which the “folding stability dG unfold” value in data set [1] was determined as 3 ± 0.072 kcal/mol; in data set [2], 2.2 ± 0.034 kcal/mol; in data set [3] it was 2.65 ± 0.096 kcal/mol.
Regarding “SAGGSAGGSMKLTLESASPDPNKVTYTIKFPGGETLTEELPEEEIEKRSKELGWNIKLFGPTKSAGGSAGGS [r12_676_JUSTAS]”, the results for the “folding stability dG unfold” value in data set [1], in data set [2] and in data set [3] were 0.098 ± 0.42 kcal/mol, -0.0326 ± 0.29 kcal/mol and -0.0928 ± 0.28 kcal/mol, respectively.
The like results for “SAGGSAGGSMKNIKEIKVERRKLPNGGEYYVVTITYPDGKEIIIEMSPEETLEEALEKAKELSSAGGSAGGS [r12_1047_JUSTAS]” were, in that order, 3.01 ± 0.21 kcal/mol, 2.87 ± 0.16 kcal/mol and 2.92 ± 0.13 kcal/mol.
The like results for “SAGGSAGGSMKPLGQGDFEDPDGWKIKISMYPDGWFRIEIYDKNGKPKETIPVPANDLPDILKSAGGSAGGS [r12_664_TrROS]” were, in that order, 1.43 ± 0.053 kcal/mol, 0.664 ± 0.027 kcal/mol and 1.21 ± 0.064 kcal/mol.
Consider “SAGGSAGGSMKTITVTFSSEEEAKKAAEEILKKEGFDEKIKEVTLTYSKEGNVLTGTVTVKTPSAGGSAGGS [r12_7_JUSTAS]”, for which the “folding stability dG unfold” value in data set [1] amounted to 1.2 ± 0.046 kcal/mol; in data set [2], 0.449 ± 0.042 kcal/mol; in data set [3] it was 0.945 ± 0.089 kcal/mol.
As for “SAGGSAGGSMKTKTIEIEIDGKKVRITIDSDGNITIEVPSEEVKEALKKLLPPGVKITKIEPVSAGGSAGGS [r12_9_TrROS_Hall]”, the “folding stability dG unfold” value in data set [1] amounted to 1.61 ± 0.1 kcal/mol; in data set [2], 2.15 ± 0.13 kcal/mol; in data set [3] it was 1.94 ± 0.21 kcal/mol.
In the same order, the values of “SAGGSAGGSMKTLTLEGESEEEAIEKVKEYFKKKGINYKLLKIEISEKPNGTKIYTIDIDTKKSAGGSAGGS [r12_924_JUSTAS]” are 2.33 ± 0.1 kcal/mol, 1.19 ± 0.1 kcal/mol and 2.04 ± 0.2 kcal/mol.
In the same order, the values of “SAGGSAGGSMKVEITKVEPETGPNGRPYYRVEVKVIGEDGSPYTFTFYFEKPSDIENAKISLDSAGGSAGGS [r20_130_TrMRF]” are 3.91 ± 0.07 kcal/mol, 2.67 ± 0.19 kcal/mol and 3.5 ± 0.21 kcal/mol.
For “SAGGSAGGSMKVYKLPGGYTVTVEPVDGGTLVTITLPDGSVKTKFVPPDEPVVVDPNGAKITVSAGGSAGGS [r12_281_JUSTAS]”, the results for the “folding stability dG unfold” value in data set [1], in data set [2] and in data set [3] were 2.55 ± 0.036 kcal/mol, 1.85 ± 0.071 kcal/mol and 2.29 ± 0.077 kcal/mol, respectively.
In the case of “SAGGSAGGSMKYTLLSTRKNPDGTELRLIEVSEDPEKAKEYLESQGAVEIEFKKNIMTVTFKSSAGGSAGGS [r20_222_JUSTAS]”, the “folding stability dG unfold” value in data set [1] is -0.321 ± 0.32 kcal/mol; in data set [2] it was -0.216 ± 0.22 kcal/mol; in data set [3] it was -0.214 ± 0.17 kcal/mol.
For “SAGGSAGGSMLTIEKPMPGTTEEEALEYAEELKEKNPNYKIEVEIEKTEEGYLTVKIKLTKKESAGGSAGGS [r12_425_JUSTAS]”, the figures for the “folding stability dG unfold” value in data set [1], in data set [2] and in data set [3] were 0.879 ± 0.12 kcal/mol, 1.31 ± 0.12 kcal/mol and 0.972 ± 0.24 kcal/mol, respectively.
On to “SAGGSAGGSMLVEVEYEGGERRTFPLENRSVEEAVEALPEGVTRVRVTVYLGEKPVEFEVERPSAGGSAGGS [r12_767_TrMRF]”, for which the entries for the “folding stability dG unfold” value in data set [1], in data set [2] and in data set [3] were 1.07 ± 0.067 kcal/mol, 0.271 ± 0.077 kcal/mol and 0.799 ± 0.052 kcal/mol, respectively.
The like results for “SAGGSAGGSMLVLKVEVKIEVEEREVIGPDGKIKKEKKIKIEIKIELFELPPLTEEELKKLKESAGGSAGGS [r12_1060_TrROS_Hall]” were, in that order, 4.14 ± 0.21 kcal/mol, 2.73 ± 0.27 kcal/mol and 3.6 ± 0.72 kcal/mol.
In the case of “SAGGSAGGSMNPEVPYAKVTLELKLPDGTTATLTLEVPLEEIPKVIEELKKKGYEILSIKIEPSAGGSAGGS [r12_986_JUSTAS]”, the “folding stability dG unfold” value in data set [1] is 5.02 ± 0.13 kcal/mol; in data set [2], 4.17 ± 0.23 kcal/mol; in data set [3], 5.07 ± 0.27 kcal/mol.
For “SAGGSAGGSMNVSPEELEALARERIEALLAENPDVPRDDVVLEFEGRSESPGKVITLTLRVRASAGGSAGGS [r12_707_JUSTAS]”, the entries for the “folding stability dG unfold” value in data set [1], in data set [2] and in data set [3] were -0.00174 ± 0.23 kcal/mol, 0.242 ± 0.14 kcal/mol and 0.0895 ± 0.21 kcal/mol, respectively.
Consider “SAGGSAGGSMPFIKVKVRFIEPNGIERTFEIELPEDKNLDEAIKLAPLFAKNGLPVEIEEVEGSAGGSAGGS [r12_804_TrMRF]”, for which the “folding stability dG unfold” value in data set [1] was 0.0494 ± 0.44 kcal/mol; in data set [2], 0.758 ± 0.089 kcal/mol; in data set [3], 0.466 ± 0.18 kcal/mol.
As for “SAGGSAGGSMPLKLVELKPLEESTGENGVPTVRVELVLERPGERITVELEVSPEEIEALIKKLLSAGGSAGG [r6_379_JUSTAS]”, the “folding stability dG unfold” value in data set [1] came to 1.07 ± 0.2 kcal/mol; in data set [2], 2.03 ± 0.074 kcal/mol; in data set [3] it was 1.56 ± 0.19 kcal/mol.
In the case of “SAGGSAGGSMPPLAPDETVTQTLPSPDGSEVLVTYTWVPGEGLVETKVTDPATGKTTSTKTPVPSAGGSAGG [r6_440_JUSTAS]”, the “folding stability dG unfold” value in data set [1] is -0.521 ± 0.31 kcal/mol; in data set [2], 0.0545 ± 0.067 kcal/mol; in data set [3], -0.0833 ± 0.16 kcal/mol.
In the same order, the values of “SAGGSAGGSMPTSSSSSLSSEAEVEALIEELKKKGAKEFTVDPGPGALTLTITYDDSTLTISSSAGGSAGGS [r12_846_JUSTAS]” are 1.38 ± 0.057 kcal/mol, 0.838 ± 0.033 kcal/mol and 1.12 ± 0.11 kcal/mol.
As for “SAGGSAGGSMPVVVEPTTIGDIEVTRVVLPDGTVVVYTKAPTTLKVTYRPLATGEEEEEVFPELSAGGSAGG [r6_555_JUSTAS]”, the entries for the “folding stability dG unfold” value in data set [1], in data set [2] and in data set [3] were 0.829 ± 0.11 kcal/mol, 1.01 ± 0.011 kcal/mol and 1.01 ± 0.056 kcal/mol, respectively.
Consider “SAGGSAGGSMRTITYEFPPGTTKEEVIEKVKELAKKEGLPIEKIESITEDPETGTYTVTVVVKSAGGSAGGS [r12_131_JUSTAS]”, for which the “folding stability dG unfold” value in data set [1] was 4.65 ± 0.14 kcal/mol; in data set [2], 4.2 ± 0.42 kcal/mol; in data set [3] it was 4.59 ± 0.34 kcal/mol.
For “SAGGSAGGSMRVRFLVTEPGLGPETAALRVERRLLEEYPVRVKGVRVRTRPDGGYLVVVEVEPSAGGSAGGS [r12_781_TrMRF]”, the “folding stability dG unfold” value came to 1.03 ± 0.1 kcal/mol in data set [1], 0.673 ± 0.076 kcal/mol in data set [2] and 0.94 ± 0.088 kcal/mol in data set [3].
For “SAGGSAGGSMSTSLSLSSAPGVSVVTTAHPDSTVVTEQPPDGSRVVRVLDPAGELVAEEAVAPSAGGSAGGS [r12_471_JUSTAS]”, the “folding stability dG unfold” value in data set [1] is -0.302 ± 0.16 kcal/mol; in data set [2] it was -0.623 ± 0.36 kcal/mol; in data set [3], -0.33 ± 0.15 kcal/mol.
Turning to “SAGGSAGGSMTFEILPDGKTKTLTLDEAKELILNEVPPDTTVVNLDTGKVISAEEFLKLLGIKVSAGGSAGG [r6_937_JUSTAS]”, the “folding stability dG unfold” value was 0.943 ± 0.084 kcal/mol in data set [1], 0.998 ± 0.016 kcal/mol in data set [2] and 0.998 ± 0.084 kcal/mol in data set [3].
In the same order, the values of “SAGGSAGGSMTIDGNALYEELGKDLPDEEKRKLFEEKAEEIAKKLGIPNMKVNINIKKPNEIKSAGGSAGGS [r12_666_JUSTAS]” are 0.135 ± 0.051 kcal/mol, -0.213 ± 0.093 kcal/mol and 0.0998 ± 0.078 kcal/mol.
Turning to “SAGGSAGGSMTITKRSDGTIEVEIEISPEHPDVSPEEVKERVKKELEKKGIKTPVKITVKPVPESAGGSAGG [r6_480_JUSTAS]”, the “folding stability dG unfold” value is 2.27 ± 0.14 kcal/mol in data set [1], 1.35 ± 0.044 kcal/mol in data set [2] and 1.92 ± 0.19 kcal/mol in data set [3].
In the same order, the values of “SAGGSAGGSMTIVDPETGETLEIIEVKKNEDGKESFIFRISSPKPRYFIIDKDGNIRVIEKKDSAGGSAGGS [r12_205_TrROS_Hall]” are 1.23 ± 0.2 kcal/mol, 1.36 ± 0.022 kcal/mol and 1.34 ± 0.074 kcal/mol.
In the same order, the values of “SAGGSAGGSMTIVIKVKSKEDALEAAKALLAELGIEEGAEVKKIEVEEVDPENKEYYVRIEVKSAGGSAGGS [r12_999_TrROS_Hall]” are 1.7 ± 0.029 kcal/mol, 1.72 ± 0.13 kcal/mol and 1.75 ± 0.14 kcal/mol.
“SAGGSAGGSMTPVPGGYVITIETPAPGGVPLATLYVPSREEAEAAIAEIPAEDLTAVTVEPVLLSAGGSAGG [r6_705_JUSTAS]”: the “folding stability dG unfold” value in data set [1] was 0.566 ± 0.13 kcal/mol; in data set [2], 0.714 ± 0.034 kcal/mol; in data set [3] it was 0.719 ± 0.081 kcal/mol.
Regarding “SAGGSAGGSMVEYTFTVYDPRTGKETLFTVPSDIPFEEAKEKVEKEIRKGLPPNYTVTFTKPASAGGSAGGS [r20_213_JUSTAS]”, the entries for the “folding stability dG unfold” value in data set [1], in data set [2] and in data set [3] were 1.45 ± 0.11 kcal/mol, 1.75 ± 0.035 kcal/mol and 1.58 ± 0.089 kcal/mol, respectively.
On to “SAGGSAGGSMVLNFEDTKPGVSPEEAAARVAAKIRAEHDVAVLGVEVETSPTGGYHITITVDPSAGGSAGGS [r12_781_JUSTAS]”, for which the “folding stability dG unfold” value in data set [1] came out at 0.272 ± 0.08 kcal/mol; in data set [2], 0.325 ± 0.059 kcal/mol; in data set [3] it was 0.391 ± 0.062 kcal/mol.

The values above are taken from the supplement of paper PMC12764529.
